Experimental data reported in patent US20190135928A1 (Bristol-Myers Squibb, published 2019).

Columns and labels:
Assay in all cases: cell-based or functional assay
human TL1A (in-house) [1] = molecular target: T1, human TL1A (in-house) (human, UniProt O95150 57-251, limits assumed)
T1 sequence: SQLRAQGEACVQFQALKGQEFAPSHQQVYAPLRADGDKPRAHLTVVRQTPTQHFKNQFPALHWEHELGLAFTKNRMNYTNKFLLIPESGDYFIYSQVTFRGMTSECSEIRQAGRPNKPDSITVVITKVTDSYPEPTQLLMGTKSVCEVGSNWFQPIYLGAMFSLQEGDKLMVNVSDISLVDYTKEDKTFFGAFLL

human TL1A (in-house) [2] = molecular target: T1, human TL1A (in-house); remark: listed apart in the source
human TL1A (in-house) [3] = molecular target: T1, human TL1A (in-house); remark: listed apart in the source
human TL1A (in-house) [4] = molecular target: T1, human TL1A (in-house); remark: listed apart in the source

B1: TL1A antibody 10A4.F7.2E8 huIgG4 (antibody, V domains shown)
VH: QLQLQESGPGLVKPSETLSLTCTVSGGSISSRSYYWGWIRQPPGKGLEWIGSIYYNGRTYYNPSLKSRVTISVDTSKNQFSLKLSSVTAADTAVYYCAREDYGDYGAFDIWGQGTMVTVSS
VL: AIQLTQSPSSLSASVGDRVTITCRASQGISSALAWYQQKPGKAPKLLIYDASSLESGVPSRFSGSGSGTDFTLTISSLQPEDFATYYCQQFNSYPLTFGGGTKVEIKR
With B1 the “EC50, TL1A + IL-12 + IL-18 driven IFNg (Hu Tcells) (2.45 mg/ml), Donor A, ELN ref 97305-062” value (human TL1A (in-house) [1]) was 0.18 nM, the “EC50, TL1A + IL-12 + IL-18 driven IFNg (Hu Tcells) (2.45 mg/ml), Donor A, ELN ref 97305-064” value (human TL1A (in-house) [1]) was 0.235 nM and the “EC50, TL1A + IL-12 + IL-18 driven IFNg (Hu Tcells) (2.45 mg/ml), Donor A, ELN ref 97305-066” value (human TL1A (in-house) [1]) was 0.331 nM. The “EC50, TL1A + IL-12 + IL-18 driven IFNg (Hu Tcells) (2.45 mg/ml), Donor A, ELN ref 97305-077” value (human TL1A (in-house) [1]) was 0.241 nM, the “EC50, TL1A + IL-12 + IL-18 driven IFNg (Hu Tcells) (2.45 mg/ml), Donor A, ELN ref 97305-082” value (human TL1A (in-house) [1]) was 0.034 nM and the “EC50, TL1A + IL-12 + IL-18 driven IFNg (Hu Tcells) (2.45 mg/ml), Donor A, ELN ref 99932-003797” value (human TL1A (in-house) [1]) was 0.355 nM. For the same binder, the “EC50, TL1A + IL-12 + IL-18 driven IFNg (Hu Tcells) (2.45 mg/ml), Donor A, ELN ref 99932-004083” value (human TL1A (in-house) [1]) was 0.393 nM, the “EC50, TL1A + IL-12 + IL-18 driven IFNg (Hu Tcells) (2.45 mg/ml), Donor A, ELN ref 99932-004084” value (human TL1A (in-house) [1]) was 0.367 nM and the “EC50, TL1A + IL-12 + IL-18 driven IFNg (Hu Tcells) (2.45 mg/ml), Donor A, ELN ref 99932-004439” value (human TL1A (in-house) [1]) was 0.185 nM. The “EC50, TL1A + IL-12 + IL-18 driven IFNg (Hu Tcells) (2.45 mg/ml), Donor A, ELN ref 99932-004774” value (human TL1A (in-house) [1]) was 0.22 nM, the “EC50, TL1A + IL-12 + IL-18 driven IFNg (Hu Tcells) (2.45 mg/ml), Donor A, ELN ref 99932-004955” value (human TL1A (in-house) [1]) was 0.172 nM and the “EC50, TL1A + IL-12 + IL-18 driven IFNg (Hu Tcells) (2.45 mg/ml), Donor B, ELN ref 97305-062” value (human TL1A (in-house) [1]) was 0.259 nM. For the same binder, the “EC50, TL1A + IL-12 + IL-18 driven IFNg (Hu Tcells) (2.45 mg/ml), Donor B, ELN ref 97305-064” value (human TL1A (in-house) [1]) was 0.199 nM, the “EC50, TL1A + IL-12 + IL-18 driven IFNg (Hu Tcells) (2.45 mg/ml), Donor B, ELN ref 97305-066” value (human TL1A (in-house) [1]) was 0.347 nM and the “EC50, TL1A + IL-12 + IL-18 driven IFNg (Hu Tcells) (2.45 mg/ml), Donor B, ELN ref 97305-077” value (human TL1A (in-house) [1]) was 0.258 nM. For the same binder, the “EC50, TL1A + IL-12 + IL-18 driven IFNg (Hu Tcells) (2.45 mg/ml), Donor B, ELN ref 97305-082” value (human TL1A (in-house) [1]) was 0.039 nM, the “EC50, TL1A + IL-12 + IL-18 driven IFNg (Hu Tcells) (2.45 mg/ml), Donor B, ELN ref 99932-003797” value (human TL1A (in-house) [1]) was 0.312 nM and the “EC50, TL1A + IL-12 + IL-18 driven IFNg (Hu Tcells) (2.45 mg/ml), Donor B, ELN ref 99932-004083” value (human TL1A (in-house) [1]) was 0.311 nM. For the same binder, the “EC50, TL1A + IL-12 + IL-18 driven IFNg (Hu Tcells) (2.45 mg/ml), Donor B, ELN ref 99932-004084” value (human TL1A (in-house) [1]) was 0.303 nM, the “EC50, TL1A + IL-12 + IL-18 driven IFNg (Hu Tcells) (2.45 mg/ml), Donor B, ELN ref 99932-004439” value (human TL1A (in-house) [1]) was 0.194 nM and the “EC50, TL1A + IL-12 + IL-18 driven IFNg (Hu Tcells) (2.45 mg/ml), Donor B, ELN ref 99932-004774” value (human TL1A (in-house) [1]) was 0.319 nM. The “EC50, TL1A + IL-12 + IL-18 driven IFNg (Hu Tcells) (2.45 mg/ml), Donor B, ELN ref 99932-004955” value (human TL1A (in-house) [1]) was 0.211 nM, the “EC50, TL1A + IL-12 + IL-18 driven IFNg (Hu Tcells) (5.9 mg/ml), Donor A, ELN ref 99932-004774” value (human TL1A (in-house) [2]) was 0.171 nM and the “EC50, TL1A + IL-12 + IL-18 driven IFNg (Hu Tcells) (5.9 mg/ml), Donor A, ELN ref 99932-004955” value (human TL1A (in-house) [2]) was 0.273 nM. The “EC50, TL1A + IL-12 + IL-18 driven IFNg (Hu Tcells) (5.9 mg/ml), Donor B, ELN ref 99932-004774” value (human TL1A (in-house) [2]) was 0.243 nM, the “EC50, TL1A + IL-12 + IL-18 driven IFNg (Hu Tcells) (5.9 mg/ml), Donor B, ELN ref 99932-004955” value (human TL1A (in-house) [2]) was 0.182 nM and the “EC50, TL1A + IL-12 + IL-18 driven IFNg (Hu Tcells) (4.8 mg/ml), Donor A, ELN ref 97305-082” value (human TL1A (in-house) [3]) was 0.162 nM. For the same binder, the “EC50, TL1A + IL-12 + IL-18 driven IFNg (Hu Tcells) (4.8 mg/ml), Donor A, ELN ref 99932-003797” value (human TL1A (in-house) [3]) was 0.303 nM, the “EC50, TL1A + IL-12 + IL-18 driven IFNg (Hu Tcells) (4.8 mg/ml), Donor A, ELN ref 99932-004083” value (human TL1A (in-house) [3]) was 0.27 nM and the “EC50, TL1A + IL-12 + IL-18 driven IFNg (Hu Tcells) (4.8 mg/ml), Donor A, ELN ref 99932-004084” value (human TL1A (in-house) [3]) was 0.316 nM. For the same binder, the “EC50, TL1A + IL-12 + IL-18 driven IFNg (Hu Tcells) (4.8 mg/ml), Donor A, ELN ref 99932-004439” value (human TL1A (in-house) [3]) was 0.262 nM, the “EC50, TL1A + IL-12 + IL-18 driven IFNg (Hu Tcells) (4.8 mg/ml), Donor A, ELN ref 99932-004774” value (human TL1A (in-house) [3]) was 0.177 nM and the “EC50, TL1A + IL-12 + IL-18 driven IFNg (Hu Tcells) (4.8 mg/ml), Donor A, ELN ref 99932-004955” value (human TL1A (in-house) [3]) was 0.193 nM. For the same binder, the “EC50, TL1A + IL-12 + IL-18 driven IFNg (Hu Tcells) (4.8 mg/ml), Donor A, ELN ref 99932-005751” value (human TL1A (in-house) [3]) was 0.216 nM, the “EC50, TL1A + IL-12 + IL-18 driven IFNg (Hu Tcells) (4.8 mg/ml), Donor B, ELN ref 97305-082” value (human TL1A (in-house) [3]) was 0.143 nM and the “EC50, TL1A + IL-12 + IL-18 driven IFNg (Hu Tcells) (4.8 mg/ml), Donor B, ELN ref 99932-003797” value (human TL1A (in-house) [3]) was 0.361 nM. The “EC50, TL1A + IL-12 + IL-18 driven IFNg (Hu Tcells) (4.8 mg/ml), Donor B, ELN ref 99932-004084” value (human TL1A (in-house) [3]) was 0.345 nM, the “EC50, TL1A + IL-12 + IL-18 driven IFNg (Hu Tcells) (4.8 mg/ml), Donor B, ELN ref 99932-004439” value (human TL1A (in-house) [3]) was 0.157 nM and the “EC50, TL1A + IL-12 + IL-18 driven IFNg (Hu Tcells) (4.8 mg/ml), Donor B, ELN ref 99932-004774” value (human TL1A (in-house) [3]) was 0.267 nM. For the same binder, the “EC50, TL1A + IL-12 + IL-18 driven IFNg (Hu Tcells) (4.8 mg/ml), Donor B, ELN ref 99932-004955” value (human TL1A (in-house) [3]) was 0.287 nM, the “EC50, TL1A + IL-12 + IL-18 driven IFNg (Hu Tcells) (4.8 mg/ml), Donor B, ELN ref 99932-005751” value (human TL1A (in-house) [3]) was 0.138 nM and the “EC50, TL1A-driven phospho-NFkB in Hu Whole Blood(2.45 mg/ml), CD3+CD4-CD8- T-cells, Donor A, no ELN ref printed in this row” value (human TL1A (in-house) [4]) was 0.83 nM.
